This passage reports EC50 of cAMP production (HTRF) in CHO-K1 cells expressing the receptor, stimulated with rec-eel LH for 30 min, plateau of agonist-induced loss of cell-surface receptor (ELISA on HEK-293 cells, 0-60 min, one-phase exponential decay) and t1/2 of agonist-induced loss of cell-surface receptor (ELISA on HEK-293 cells, 0-60 min, one-phase exponential decay) results from PMC10252337.

Assay [1] concerns the target eel luteinizing hormone receptor D576G (constitutively activating mutant) (eel).
Assay [2] addresses eel luteinizing hormone receptor, wild type (eel).
For assay [3], the target named is eel luteinizing hormone receptor D576G (constitutively activating mutant) (eel). This is another data set of the same source.
For assay [4], the target named is eel luteinizing hormone receptor R476H (inactivating mutant) (eel).
In assay [5] the target is eel luteinizing hormone receptor, wild type (eel). This is another data set of the same source.

Turning to “recombinant eel luteinizing hormone, single-chain eel LHβ/α (ligand)”, the EC50 of cAMP production (HTRF) in CHO-K1 cells expressing the receptor, stimulated with rec-eel LH for 30 min turned out to be 94.8 ng/mL in assay [1] and 177 ng/mL in assay [2]. For the same substance, the plateau of agonist-induced loss of cell-surface receptor (ELISA on HEK-293 cells, 0-60 min, one-phase exponential decay) is 59.8 % of control in assay [3], 61.9 % of control in assay [4] and 64.2 % of control in assay [5]. Moreover, the results for the t1/2 of agonist-induced loss of cell-surface receptor (ELISA on HEK-293 cells, 0-60 min, one-phase exponential decay) in assay [3], in assay [4] and in assay [5] were 0.6 min, 0.6 min and 0.9 min, respectively.

As to “recombinant equine chorionic gonadotropin (from UniProt P08751 21-169; P01220 25-120) (ligand)”, the plateau of agonist-induced loss of cell-surface receptor (ELISA on HEK-293 cells, 0-60 min, one-phase exponential decay) is 46.3 % of control in assay [3], 42.6 % of control in assay [4] and 56.8 % of control in assay [5]. Also, the t1/2 of agonist-induced loss of cell-surface receptor (ELISA on HEK-293 cells, 0-60 min, one-phase exponential decay) in assay [3] worked out at 2.1 min; in assay [4], 1.9 min; in assay [5], 2.5 min.
